These results are taken from the DeepSol protein solubility set.

A short description of this series: soluble on expression in E. coli; label from the status in PepcDB or PDB records.
As to “MKKILILLTLCAFAFGASECDRKIDRINKEISFSKAHNDTARTLSLELALKQVQNDCAKDPMFYDKKLEAKKLKEQEVEKIEKELDALKEQKDYMSKAEYKAKKEALKEQKEKIKKLEHHHHHH”, the “soluble on expression in E. coli” value is recorded as “not soluble”.

“MLTEQQRRELDWEKTDGLMPVIVQHAVSGEVLMLGYMNPEALDKTIESGKVTFFSRTKQRLWTKGETSGNFLNVVNIAPDCDNDTLLVLANPIGPTCHKGTSSCFGDTAHQWLFLYQLEQLLAERKSADPETSYTAKLYASGTKRIAQKVGEEGVETALAATVHDRFELTNEASDLMYHLLVLLQDQDLDLTTVIENLRKRHQ”: the “soluble on expression in E. coli” value is on record as “not soluble”.

Regarding “MKGIARLVTSLSRIGGRKVVSGTSTVTSSSSSSLLLSRRSLFISATNLLNSRTKDSALPSLNSSLLAQKWNFLGGQRRTMFIQTQSTPNPSSLMFYPGKPVMEVGSADFPNVRSALGSPLAKSIYSIDGVVRVFFGSDFVTVTKSDDVSWDILKPEIFAAVMDFYSSGQPLFLDSQAAAAKDTAISEDDSETVAMIKELLETRIRPAVQDDGGDIEYCGFDPESGIVKLRMQGACSGCPSSSVTLKSGIENMLMHYVSEVKGVEQEFDGEDEEGTLSGEMRVE”, the “soluble on expression in E. coli” value is on record as “not soluble”.

In the case of “MSSQKSGIVVQSDETHILISSSHDIFVADPDQNTKLGDSVSFTTWDIANNLKRASDIKPRNQIVESVVYEQDQSLRLRLKILGFYDFTKSQQRVFRTDFITQVREGEKFKYLPKNAFFGRQITVKLTHQKNSIVWELDEFEEPKEKTYSLIGQIYYTDFSDAYVYVPGYPEPFVISKETNFSRSEEGTWVKFLACTATASVKKSEGFQFLEKDLLDTNRNREIAIKCSRKDGIIQSHHFEKVIDKDNRLADYGVLSDFENVLIYVKVSMEGVSKKPSLILGQFQTSFNVNPTLTRDQKEALDPPKRILKKQSSLPREGSSRKQVTQIQNLSRKIETGPRINFLPNFNNQDHGSEFFSDNEEMDLVPPLENSHLRVDPVPVPIEPSIQQNRTTTTAPISAPARRISSNESRRENPNSQPAPSKMQNVFREDPEAEYKRPERSNADNDETSSTISACSSKSRIVRENPDANYERPARRLPTPPLEANDNLEHQSHDSSSTDGLRDTSPVGNNTNPRSGSPSCHSDTHSSVSSSLWITTINSSKDLEFVKNEYIKLWIEDQASQKEMKNLKAKRIELKMKQKKLKAELNDEKMKNQKLEEAAFNDRKEKAELKKKVSNLEQSAQNTQRTLQNQTRELNLYSTNRSWLRKEFNSTNLLEHLRRNYHDLSKRLEQFAFN”, the “soluble on expression in E. coli” value is “not soluble”.

On to “MGMAAESQFHVLAVDDSLFDRKLIERLLQKSSCQVTTVDSGSKALEFLGLRQSTDSNDPNAFSKAPVNHQVVEVNLIITDYCMPGMTGYDLLKKVKESSAFRDIPVVIMSSENVPARISRCLEEGAEEFFLKPVRLADLNKLKPHMMKTKLKNQKLEEIETTSKVENGVPTAVADPEIKDSTNIEIEILPLQQDLLLVQQEEQTLSINNKRKSVEEGISTDRARPRFDGIATAV”, for which the “soluble on expression in E. coli” value is “not soluble”.

Take “MRKKEDKYDFRALGLAIKEARKKQGLTREQVGAMIEIDPRYLTNIENKGQHPSLQVLYDLVSLLNVSVDEFFLPASSQVKSTKRRQLENKIDNFTDADLVIMESVADGIVKSKEVGEMAGENLYFQ”: the “soluble on expression in E. coli” value is on record as “soluble”.

Regarding “MQFNPGFSSLAALLADPGRAQMIWALMDGSARPASELALLAGVSPSSASGHLGRLVEGGVLSLEARGRNRFYRLAGPEVGQAVEALASASLALQPQRRSLPPSHGTPSALREARTCYDHLAGELAVGVFARMLDAGWIEQEGRTLRLSATGEAGLAGLGIDLAEVRRRRRQFACACPDWSERKPHLGGALGAALLEACLRQGWLRPQDGSRALQVSSKGRAGLRGLAERTAG”, the “soluble on expression in E. coli” value is “not soluble”.

On to “MGSDKIHHHHHHVYQDLSRFSMPADFRGKPGWYVQLWWVVQALLFHPSPQIMYGWRRLLLRAFGAQIGKGVIIRPSAQITYPWKLAIGDYAWIGDEVVLYTLGNITIGKNAVVSQRSYICTGSHDFKKEAFDIFSKPIIIDDECWLATDVFVGPGVKISKGIVIGARSSVYKNIEATPGIYTGNPATRVGDR”, for which the “soluble on expression in E. coli” value is given as “not soluble”.

Take “MGSDKIHHHHHHEHKDLCYDHPHFATVRVVFDWTKISNHDKPEGMRVVFYPTDDESNTWIFDFPGGEDGEVELPENDYRVICFNYDTDGMVWKENGSYTLFTADTRDVRSPDNQTMAVTPPWLCGDHIDRVILKDIPEGSTKIIRLTPVNMVCHYTYEVNGIRGLDRVADLRAALSGMSGSLNMSGDSLPADLSESLLFDGMVSRNQIIGGFYTFGHSALEGEPNVFRLYLKNRSGSMSVLEQDVSDQVHDVPVAGHIGDVHLVLNFDYEVPSEPGSGGPGFDVDVDDWDDVNVDIVL”: the “soluble on expression in E. coli” value was “not soluble”.

Consider “TTGSDGKATFDVTQNETYGLATPLTATLMRDTTKSATMDVIFTVITSPNSPKAKYWGHMPDTFTSRAGVTFKRPLLAAEATLGSSVSNNNESWSYLFYTNKVTPDCPVEYQPRLNELQGLYNDHPGGTILTDLGLPITAGSGNWWTYEMSTTDALTWYYGVINLKTGQSTTTINGYALMLCL”, for which the “soluble on expression in E. coli” value is reported as “not soluble”.

As to “MKVGVFTVLYQQLPLEDMLDKVAAMGIEAVELGTGNYPGNAHCDPDALLDQPEKIKALKKAVADRGLVISALSCHGNPLHPDKTFAKQSHDTWRKTVRLAEQLEVPVINAFSGCPGDHPGAKYPNWVTCSWPPDYLEILKWQWEEVVIPYWREEAAFAKEHGITQIAFEMHPGFVVYNPETLLKLREHVGEAIGANFDPSHLLWQGIDPVEAIKLLGREKAIFHVHAKDTYLDEANIRKNGVLDTKHYSQILDRSWVFRTVGYGQSEKMWRDIVSALRAVGYDYVLSIEHEDMLASIDEGLSKAVALLKKVLFKEELPEMWWA”, the “soluble on expression in E. coli” value is on record as “not soluble”.

In the case of “MCESDKLHDEINVIDIKIYPNRFLKPKTTELLLNKICGLEGYVRFLIHGPSLPKKVFYGPGKGHDVNHGDRKSILVNGNGIDLKVMVGEIIITVELDKFNDFMNQLEDILTETLSVEYSLLVGIFTRTTSTISDYLKYGIGFENLIDKRYIGLIDSRARSSESISIIKLEHHHHHH”, the “soluble on expression in E. coli” value was “not soluble”.

As to “MKKLLLPLVLAGVLLATLLVSQSSSSPSLRVAYVDVEKATESYYKWQDLNEKYKRDYSFYQNKLKEMEDELKKMQEEGRSQEEIQAKQKEILSKKAEYENLLKTEYQQKIQEVMKEVVSKIQEYASVMGYDLVIAKQMVLYGKPSYDITDQVIAYINQK”, the “soluble on expression in E. coli” value is recorded as “not soluble”.

For the sequence “MGSDKIHHHHHHMTTKPERVVLIGVAGDSGCGKSTFLRRLIDLFGEEFMTVICLDDYHSLDRKQRKETGITALDPRANNFDLMYEQIKALKEGQTINKPIYNHETGLIDPPEIVKPNHIVVVEGLHPLYDERVRSLLDFSVYFDISDEVKIAWKIQRDMAERGHRYEDVLAAINSRKPDFQKYIEPQREFADVVLQVLPTNLIKDDTDRKVLRVRMLQREGKEGFEPAYLFDEGSTINWTPCGRKLTCSYPGMQLYYGSDVYYGRYVSVLEVDGQFDNLEEVIYIETHLSNTSTKYQGELTQLLLQHREYPGSNNGTGFFQVLTGLKMRAAYERLTAKEAKLAVQV”, the “soluble on expression in E. coli” value is given as “not soluble”.

For the sequence “KGDDTYYIIFTSGTTGKPKGVQISHDNLLSFTNWMINAEAFATPHRPQMLAQPPYSFDLSVMYWAPTLALGGTLFALPKEITADFKQLFTTINQLPIGVWTSTPSFVDMAMLSDDFNAQQLPHLTHFYFDGEELTVKTAKKLRQRFPQARIVNAYGPTEATVALSALAVTDKML”, the “soluble on expression in E. coli” value is listed as “not soluble”.

In the case of “MAHHHHHHMSRKRVRAEDIHYWLLKSEPHKFSIDDLAKQKTSPWDGVRNYAARNNMRAMSVGDKVLFYHSNTKEPGVAGLAEVVRLAYDDFTALDKTSEYFDPKATKEKNPWKMVDVKFVARWDTVLTLHELKSRRELQKMALFTQRRLSVQPVSASEYAYILRMNEEQQRK”, the “soluble on expression in E. coli” value is reported as “soluble”.

With “MISHCRRLLATTTALVIASTAIAAAEPSAELIAAAKKEGMLTTVALPHDWCGYGDVIAAFKAKYPEITVNELNPDAGSADEVEAVKANKDNKGPQAPDVVDVGLAFGPQMKAEGLLQPYKVSTWAEIPDNVKDADGYWYGDYYGVMSMFVNKDLVKNVPKDWADLLKPEYSGQVALAGDPRASNQAILGVLAAGLSTGAKSGKEAGEAGLKYFADLNKAGNFLPVIGKAGTLAQGATPIIVAWDYNALSWKKTLNDNPPTEVVVPEKGVLAGVYVQGISAYAPHPNAAKLWMEHLYSDDGQLGWLKGYCHPIRFNAMVKAGKVPQELIDSLPPAAAYEKAIFPTLEEVDANKAAVTGGWDKVVGANVK”, the “soluble on expression in E. coli” value is listed as “not soluble”.

Take “MSLTNNNHRLISNSFSTYSIDTSRAYENYLTHWTEWKNNRIQEEQRDIAFQRLVSCLQNQETNLDLSELGLTTLPEIPPGIKSINISKNNLSLIPPLPASLTQLNVSYNRLIELPALPQGLKLLNASHNQLITLPTLPISLKELHVSNNQLCSLPVLPELLETLDVSCNGLAVLPPLPFSLQEISAIGNLLSELPPLPHNIHSIWAIDNMLTDIPYLPENLRNGYFDINQISHIPESILNLRNECSIDISDNPLSSHALQSLQRLTSSPDYHGPQIYFSMSDGQQNTLHRPLADAVTAWFPENKQSDVSQIWHAFEHEEHANTFSAFLDRLSDTVSARNTSGFREQVAAWLEKLSASAELRQQSFAVAADATESCEDRVALTWNNLRKTLLVHQASEGLFDNDTGALLSLGREMFRLEILEDIARDKVRTLHFVDEIEVYLAFQTMLAEKLQLSTAVKEMRFYGVSGVTANDLRTAEAMVRSREENEFTDWFSLWGPWHAVLKRTEADRWALAEEQKYEMLENEYPQRVADRLKASGLSGDADAEREAGAQVMRETEQQIYRQLTDEVLALRLPENGSQLHHSEGHHHHHH”: the “soluble on expression in E. coli” value is “soluble”.

Turning to “SVADANGSSSSSFNFLIYGKTGWIGGLLGKLCEAQGITYTYGSGRLQDRQSIVADIESVKPSHVFNAAGVTGRPNVDWCESHKVETIRTNVAGTLTLADICREKGLVLINYATGCIFEYDSGHPLGSGIGFKEEDTPNFTGSFYSKTKAMVEELLKNYENVCTLRVRMPISSDLTNPRNFITKIARYEKVVDIPNSMTILDELLPISIEMAKRNLTGIYNFTNPGVVSHNEILEMYRDYIDPSFTWKNFTLEEQAKVIVAPRSNNELDATKLKTEFPELMSIKESLIKFVFEPNKKTEVKA”, the “soluble on expression in E. coli” value is reported as “soluble”.

“MGSDKIHHHHHHMTPTVMVVDESRITFLAVKNALEKDGFNVIWAKNEQEAFTFLRREKIDLVFVDVFEGEESLNLIRRIREEFPDTKVAVLSAYVDKDLIINSVKAGAVDYILKPFRLDYLLERVKKIISSTPRVTVSLRKNIEDLEITLKFEDIVRKEIKRSNRTGSRFCVMYVKFEDIMRDYETIKKFFRETDYVLPISASEYLFVLTLTGKHGIEAVTRRMKEKLSERFSYTYVCYPDDGKTYEEIILTLKDRMAKPRGNES”: the “soluble on expression in E. coli” value was “not soluble”.
